According to the DeepSol protein solubility set:

Experiment: soluble on expression in E. coli; label from the status in PepcDB or PDB records

| Sequence | soluble on expression in E. coli |
| --- | --- |
| MAHHHHHHMNIVTSYFLVRKLPGTLAMGGDVLEHQNARQREYMECLRLNQQHPGVASIHLIVEGADAYEHLLKHVLCNPHFQNASTLTTSTAPASARHRRRHAAPIVPVVRFASGMPLYADFFAYANQLLSHRLTMVCNADVYLSPEHFSLSAVEDLFRQSSTLPPPHAAPCGSCQPSTADLAEREAMRPKSAPKRANPLALALTRYESDSPLDAPFLFDYRGSHDAFVLVPPVPPSFVRSVAHPQNCYKAENIVLHELQQSGYLTLNPTLGDGVRLVHRHATDLRQWFPPVDESRYGRAQPNTLAQAASRIREEARVRSLPPSV | not soluble |
| MSLSQASSTDTPFVIAGRTYGSRLLVGTGKYKDLDETRRAIEASGAEIVTVAVRRTNIGQNPDEPNLLDVIPPDRYTILPNTAGCYDAVEAVRTCRLARELLDGHNLVKLEVLADQKTLFPNVVETLKAAEQLVKDGFDVMVYTSDDPIIARQLAEIGCIAVMPLAGLIGSGLGICNPYNLRIILEEAKVPVLVDAGVGTASDAAIAMELGCEAVLMNTAIAHAKDPVMMAEAMKHAIVAGRLAYLAGRMPRKLYASASSPLDGLIDEGGSHHHHHH | soluble |
| MSLKGTDRIKVLHMSDFHIDPRYATGSEGNCTSGLCCRRGNPVESLNSNYTVSVPAPRFGYFLCDTPWALGAAAVEAIPVLTGTDEDDAFNMTIFTGDMVSHDPYYELSRDYIEYTETALYDLWKQTLNPTSPLYAAIGNHDSYQQAFDAPSSLPGKLRKQSSWNYEHLAGLWESEGWIDGEVAQKVKTHYGAYSIQHATNLKIITINTDLWYRANIFAYINSTHPDNFGFLKFLAEELQEAEDCNSRAYIVGHVLSGYDGTNPLPGPTDIFYQIIDRYSHVIAGLFWGHTHEDQHMIYYANNGTKMSAETAQNVGWIGPSITPLTDLNSGFRLYEVDAETWDILDAHTWYSNVSTYSSLDGQLEVGPSYVYEYNTRQAYGGNISWPDNAPLNATWWHLVSQDMENDGGALVELYNAHQGKMSTLSPNCTSAECIEAKVCYLRSGSGTLALDNCKTGYGSVQEGHHHHHH | not soluble |
| MVNTRPPKIDELLKIDPYLHDFQDEISRRYGVFLDYQRRIEECGGMEEFTSSYKQFGLNVQPDNSVKGLEWAPAAEKLALIGDFNNWDQNANVYKKEEHGKWSITVPAKEDGSCPIPHNSVIKIAVSRHGATHFKLSPWATFVTCPNPKETVIYHQNFWNPPEKYQLKEARPARPASLRIYEAHVGISSSEGKINTYREFADDVLPRIQKQGYNAIQLMAVMEHVYYASFGYQVSNFFAVSSRCGTPEDLKYLVDKAHSLGIFMLLDVVHSHASKNVEDGLNQWDGSNGGYFHDNARGYHNLWDSRLFDYTQTETLRFLLSNVRWWVEEYGFDGFRFDGVSSMIYHSHGMNDDFCGGYPMYFGLNADTDSLVYLMLANDFLHKKYPFMITIAEEVSGMPGICRPVEEGGQGFDYRLAMALPDMWIKILKHTSDEDWKIDDIVFNLENRRYAEKHVAYAESHDQALVGDKTIAFWLMDKEMYDFMSTDSPLTPIIDRGLSLHKLIRLITIGLGGEAWLNFIGNEFGHPEWLDFPRVGNGESFHYARRQFNLVDAEYLRYKFLNNWDREMMLLEERTGFLHKGYAYTSWKHDGDKTIVFERGGLVFVINLHPTKSFADYSIGVNTPGRYRIALNSDESKFGGHNRIDNSIKFHTTDDGYAGRRHRLQVYITCRTAIVLEKEDD | not soluble |
| MEEIIKPVSKELLKAELTEDRRLRMTNKSNNQIYIITHQNAPNVMREIGRLREIAFRAAGGGTGLSMDIDEYDTMEHPYKQLIVWNPEAEEILGGYRYLLGTDVRFDEAGAPILATSHMFHFSDAFIKEYLPQTIELGRSFVTLEYQSTRAGSKGLFALDNLWDGLGALTVVMPNVKYFFGKVTMYPSYHRRGRDMILYFLKKHFNDREELVTPMEPLILETSDEELRTLFCKDTFKEDYKILNTEIRKLGYNIPPLVNAYMSLSPTMRMFGTAINYEFGDVEETGILIAVDEILEDKRIRHIQTFIESHPDALKMPCESEGVFTPKVVTPQEGCCH | not soluble |
| MGSDKIHHHHHHMKIAYYLPSLQAPGGIERIVTFKANYFAEHFEGYDITIITSEQMGKAPHFPLSPKVKHIDLGVSFDLPYSQSIVSKVLKYPFRYYRFKQRLSNLLNELKPDITISTMRRELNFITKLKDGSLKIGEFHVSRYAYGAEALKRKSPIVNMIKKRWANRFVKNLSKLSRVIILTSEGAKDWPELTNISIIPNPISTPVEGKQTDILSHNAIAVGRYAPQKGFDMLIPAWSIVAQRHPDWKLHIYGEGDLKEKFTKLIDELQLNNNCLLHHTVSNIAEKYCMSSIFVLSSRYEGFGLVLAEAMSCGIPCVSFDCPHGPSNIIKDHEDGLLVEKENIKELADKICYLIENENVRIKMGHKARENVKRFLPENVMPQWKNLFESLTYSSK | not soluble |
| MKFKLFLGSSFFGVATLLIACGTGRFDQIDDGKIKLAVVTSPSAASSLQTLLDQYNNTKAPADYPVEVVSLDSTGSYTKGKFDTQKRLAAKDKNNFYN | not soluble |
| MCTGFTIQTLNNQVLLGRTMDYDYPLDGSPAVTPRNYRWKSRTGTTGQTQYGFIGTGTDMEGFIYGDGVNEHGVAISTQYFRGYSSYGSTHKADAMNITQNEIVTWILVYTTSIEDMKQQASQIHVVAVYLNDIGEVPPLHYHVSDATGHTVEVSFKEGEVVIKDNPIGVLTNHPDLNWHYSNLRQYINISPYPATANLLEGVTIEPLGNEAGTFGLPGGFTSTERFVRMTFMKANIAQNNDKEMDLMNAFYLLDAVNIPIGIVRPHDADNHYTMYQTVINLTTRTLYIKYYGSNELVALKLTDDLINRKDMTIFKPEKHITIRKLNDNQ | not soluble |
| MGSDKIHHHHHHMIPIKVSMRNLSSLTIAGGSTISSIDIPLNPLGVPPSTIKGTMRTAVHNLLPNGYTSCGEVEPESIREAHKNGVCDVCKLFGYPDSLTGCFTIDVSKTDYRTSYITRVSIDDKTQRAKEGSLFTQQIILPNSDISFTVYYNCNDERLFKLLLYSILDLRYWRLGRNTMIDVKVNNVEEICKSVKCDEEINGILNQLSRYLWEAENK | not soluble |
| MNYSACTSILVGPQATMDGSVLIGRNEDAKAAWPKHFIVHPATTVATPPQFVSTDNGFTMPLPTQAAKYTATPEWTDKYGLFEEDGINEYGVAMSATESTYSNERVLGADPLVKDGLGEEAMVTVVLPYVKTAREGVARLGQLIEQYGTNESNGILFADQQEAWYLETGAGHYWVAQRIPANAYAVVANQMAIQAVDFADADNFMFAKNLQAFVTDNHLNPHPDRFIWREIFGTQDQSDLYYNTPRVWYGQKRFTPQVSQEPQSFDLPFIQYADRLLSVGDAQQYLSSHFEETPYDPVGSGTAEQKHRFRPVSLAKTQESHVLQLRPNMTPGLAGIQWLAMGVGAQSVYVPFYAGIDSTPEAYHLGTETYDSKSAYWTYKLVSVLLDAHYHTALPTVSETQKALRIAFKQAVQETDRGAQTLSGTELSRYLTQRSNEVAELGLKRYRELAATLITRATDLGPLNYHQDLNLLEHHHHHH | not soluble |
| VHSELTAAVGWNVWNELFTCSDDQTIHKWNMLGEPEQKVSTLDAYFTDMHWYPVSSKKTQAGGTDVFAVACTDGSVKILSRTGRVEKSIEGHKGACISLRWSYDGTALATAGEDGSVKIWSRNGMLRSTLAQADSPVYSIVWAYDCDQLCYCTGSNVVIKSLSSNAKQNAWKAHDGVVLKVDWSPINHLIITGGEDCKYKVWDSFGRLLFQSGLFDYPVTSVAWAPSGELFAVGGFNTLQLCDRMGWAYSKIHLNDTGSIMTLSWTADSTQLA | not soluble |
| MQIFPYSDDPNKRYHTWNYALRQQFGEKIFKVPIDGGFDCPNRDGTVAKGGCTFCSVSGSGDMIVAPSDPLPLQFQKEIQLMHQKWPTVDQYIVYFQNFTNTHAPVDVIRHRFEQVVNEKGVVGLSIGTRPDCLPDEVVNYLAELNERFYLWVELGLQTTFEETSAAINRAHDYQTYLDGVAKLRKHGIRVCTHLINGLPGETPAMMRENVRRTIQDSDIQGIKLHLLHLMTNTKMMRDYNEGRLQLMSKEAYVSVICDQLEMIPPEIVIHRLTGDAPFETIIGPMWSLKKWEVLNAIDAEMKRRNSYQGKYTVISGKEVFN | not soluble |
| MERLEEARKRLEEARRVAVLTGAGISKPSGIPTFRDAEGLWKNFNPLDYATPEAYARDPEKVWAWYAWRIQKVREAKPNPAHYALVELERRILSRGGSFLLVTQNVDGLHALAGSQNLVELHGNLLRARCEACGKRFPLPEAFAPPPFCPACGHRARPDVVWFGEFLPEGAWERAERAFAEADFALVVGTSAEVEPAASLGRIAFASGAYLVEVNPEPTPLTPLAHLSLRTGAVEGMALLLPPSPEDQAEGHLS | soluble |
| MGGMLRRLEVQNLAVIREAALDFAPGLNVLTGETGAGKSLLVDALALLLGGRAEGLIGPYGESLLVTAFFEGPPGEAVLSRRVGARSTPRVDGEVVTLKELQAEAERRLSLHAQHTALALLSPRRQREALDALLPEGLLAAYQEAYARREALLKEKAALEESLKARAEREDLLRYQIREIEEARVRPGEEEELLALAERLRHLETIRERLARALALLTEREAQDLLALAAKEVRAAARHDPALEALAEELSGAAEAVRAVARELEDHLEGLDLDPEELDRVEARLSLLERLKRKYGPTLADVLAHAQKAREELARMEGGEERLSEVERLLKALHEEVEARGQALRRAREEAARRLTEGMVRELPALGLAGARFAVVLEPLPEPGPQGLEAVAFRVAPNPNLPPAPLEALSGGELSRVALALALLTGTEAPTVVFDEVDAGVGGETAWRLAERLKRLAERRQVLVVTHLPQVAAVAQRHFRVTKTPEGVRVEPLAGEARVKEIARLLSGAYTQAALAHARELLEAQGAL | soluble |
| MLIKVKTLTGKEIEIDIEPTDTIDRIKERVEEKEGIPPVQQRLIYAGKQLADDKTAKDYNIEGGSVLHLVLALRGG | soluble |
| MGSDKIHHHHHHMPLRGGVTCRVPSGMWMVPPHCGVWVPGGMLHSNVATANARLFFLFIEPGAADLPNRCCTLSLSPLVRELIIELADQSEVATADSELMTTLLLSALSRMPVEHLHLPLTDEPRLARIASELADDPSDRSTMAQWARRVAMSENSLARLVQHQTGLTFGRWRQQLQLIIAIRSLASGATVQQVSGDLGYESVSAFITMFKKALGTSPSRYLRNFDR | not soluble |
| MLSNQLHFAKPTARTPLVVLVHGLLGSGADWQPVLSHLARTQCAALTLDLPGHGTNPERHCDNFAEAVEMIEQTVQAHVTSEVPVILVGYSLGGRLIMHGLAQGAFSRLNLRGAIIEGGHFGLQENEEKAARWQHDQQWAQRFSQQPIEHVLSDWYQQAVFSSLNHEQRQTLIAQRSANLGSSVAHMLLATSLAKQPYLLPALQALKLPIHYVCGEQDSKFQQLAESSGLSYSQVAQAGHNVHHEQPQAFAKIVQAMIHSIID | soluble |
| MAGTVEGEKIDVGFAGKRCIHSRNCVLGDPHVFVPNAPGQWIHPDAASVEKIVAIAESCPSGAITYVRKDGGPQEQPPVVNTVRLRENGPLAVHAEIVLDGETFYRATLCRCGASENKPFCDGSHGKAGFTATGEPALKDAPALEARNGPLKVTPTTNGPLKLEGNVEIVTGTGHTIDRTQRTFLCRCGHSANKPFCDGSHKKIGFVA | not soluble |
| MGSDKIHHHHHHMFTVMDIVQPDTVEEAYSILNKRKTNQVIGGSAFLRMGKKRIGTGIELSKLNLDYIKEYEDYVEIGSMTTFRTLETSSIIKNNFGRIIEDSVKNIIGVQFRNVVTVGATVFSKYGFSDLIVALLSLDTEVELYNIGRISLEEFLNRDYEKDLLIKIYIKKTNKNASYKSLRNAKSDYPILNVSVSKHMEQFKLCVGARPQKATIAKQASEFLSNNEINEINIDKAVEIASEELTFGSNMRASREYRKAMSKVLLKRAIMEVI | not soluble |
